Measured values reported in the DeepSol protein solubility set.

Assay: soluble on expression in E. coli; label from the status in PepcDB or PDB records

Soluble on expression in E. coli, not soluble:
MGSDKIHHHHHHMAYLTIIKNGETIDHRKYGLKLLSFRKESLTHRTNFEEIGGRHGAIDTGTTFGERKLKATFLMQGVDHLDYQLMIDEVYALFACEDSIELIDSRQPGKVWTVKPSSTFEPDDLNPRSGKFEIEFTSPLPFASSYGSTLDPFTFGEEVWQIGQGLIPSDSLVYRHRTTRFSIFNAGNVEVDPCLEMPLNIVYKGASSNFSIKNKTTGQTISYNGTSKSTDSIKLEGLRHLKNGISIYGNTNRGYVSLKPGWNDFELTGTSGSFEITFDFFFFYK
MIRTIERIITSTGFSLQHSDNGEITGLFYHCKLSSAYQPVFEAARNNIIGQEARIRADLNGNGEIQLSPWHIFALAPDDEQLIKLDRLCRTIHALNFLDNITNKQMKLFVSVQPRLLESVKDDHGSAFEQILDIIGIRTSRIVIEIPVEANRDWRLLKRVIMNYRAHGYLISVNYSGTNNDRISELGKLYPNVIRIDARDLLRRSVLDPLIVTAHNQGADVLVGNIETSYQLTDAIHAGADLLQGNFLARYSRKADNMLTPFSWQIPDERNGYRFDNESLQENQPYRSI
MQEYSVEVALVHPDDMVNLFGSNERHLKLIEENLGVVIHARTERVQILGETEEAIELARLTIKALLVLVGRGMIVNTSDVVTALSMAQNGNIDKFVALYEEEIIKDSYGKPIRVKTLGQKVYVDSVKSHDIVFGIGPAGTGKTFLAVTLAITALKRGQVKRIILTRPAVEAGESLGFLPGDLKEKVDPYLRPVYDALYQILGKEQTSRLMEREIIEIAPLAYMRGRTLDDAFVILDEAQNTTIMQMKMFLTRLGFNSKMIVNGDISQIDLPKNVKSGLVDASEKLKDIKQIDFVYLSAKDVVRHPVVAEIINAYEESTDVR
MSQQYVYSMLRVSKVVPPQKTIIKDISLSFFPGAKIGLLGLNGAGKSTVLRIMAGVDKEFEGEAVPMGGIKIGYLPQEPELDPEKTVREEVESGLGEVAAAQKRLEEVYAEYANPDADFDALAEEQGRLEAIIAAGSSTGGGAEHELEIAADALRLPEW
MEKKANHGDDVQESVPIIHSQVVKIKREFEKIQHPSLKQPEMPLVFREIMGPRRSRSPLGLGERERSIPVGN
MAHHHHHHMSTEVSSGSNDGPSFHHHIQDAVHMIWNNQCSEAEEILFPYKEIHPRYALEYANKYLVQTLMNSTNESREILLELFKVADSLASAAKYSEPMFDFDVENDGDGTGMSMCLPSKAERKISKKSFNGRRKAAEKAGQSFVDNWKLECDVIYADALLMRSVCQLMMNSYFKGGVNLRRTWGLYHKLIQVVEADRTNQIPNELKMCVKYGTGAFYAFLALVPANLMRLLNVIGFISDKELGEQYLTEVFESNGVRSPFAALVLCTLYLFLPTGLGRVEETLAKAKRILDAMNQKYEHNTYFYGYSNFYHRKRGETAEALMAIQLAETNAERAGLVPILIRYLHADTLFMDLRFEEARDRYAALLDHLAKTKESFAYTGQVVLSLAACFVMLGDDAQAIQWLKKVGSMYNSRSKNDANSPKFASRVLANPRLLPLCGVYMLYINRDLAHMKVEQAERLLEELTRVTKGKDLSGPEPENMFTLFVGVIHKGCDRIDEAFGYMSKIFANEKRVPNDSMVLPYAYYEAGELEYRRGNYENAKTLFTKGQSLKGDGNETLMNRYNIALKQLKRTMEERKGA
MKPVQLTVDNIAKAIFTVNRHAKTALNPSFLYLLKKKAIEKLLEEGKAKKVGLHFSRNPKYSQQQSDVLVAVGDYYFHIPPTKQDFAALPHLGSLNDSYRNPPARMPLSEAKAILIAYTGLREKPEQKPKRLTRPVFKRLGDRY
MGSDKIHHHHHHMEMEFNENNIDLETIIRDEVNKYLSRDIGDLPATQQAPLELREKYEKMEVPNKGRDIYEVLKDLNNEVLNYLYRPNHPRSFSFIPGPASRLSWLGDILTTANNIHASNFANATLPINIERNLINYLVGKIGYEIKPAGGVFVSGGSMANLTAIVAARDAQVEMEDIKKATVYLTSQTHHSVGKALHVAGFLKNNIRRIEYNDDFTMNTDSLKAAIDKDIEEGYKPAMVIATAGTTNTGSVDDFTTLGDICDHYNLWLHVDGAYGLSHILSDKAQHLFKGIERSDSASWDAHKLLFQTYSCAMVIVKEKNHLLQSFGEDAEYLDDIASDDDVIDPEMLGIELTRPARALKLWITLQVIGEDEIIERIKYGEGLAEYAEEYVSSLDNWRIISHANLSIVNFRYENSDLTEAQNNQLNSMAAQKIADSGYAIAYTTVLNNQRVIRLCTTNPLTTHDDIRETINRLDQYIGDYDMKDA
MGGSHHHHHHGMASTQLFLWEYGDLHLFGPNQRPAPCYDPCEAVLVESIPEGLDFPNASTGNPSTSQAWLGLLAGAHSSLDIASFYWTLTNNDTHTQEPSAQQGEEVLRQLQTLAPKGVNVRIAVSKPSGPQPQADLQALLQSGAQVRMVDMQKLTHGVLHTKFWVVDQTHFYLGSANMDWRSLTQVKELGVVMYNCSCLARDLTKIFEAYWFLGQAGSSIPSTWPRFYDTRYNQETPMEICLNGTPALAYLASAPPPLCPSGRTPDLKALLNVVDNARSFIYVAVMNYLPTLEFSHPHRFWPAIDDGLRRATYERGVKVRLLISCWGHSEPSMRAFLLSLAALRDNHTHSDIQVKLFVVPADEAQARIPYARVNHNKYMVTERATYIGTSNWSGNYFTETAGTSLLVTQNGRGGLRSQLEAIFLRDWDSPYIHDLDTSADSVGNACRLL
MGSDKIHHHHHHMKLITVSGPPSSGKTSLIIKTVESLKAQNIKVGIVKFDCLYTDDDILYEKAGILVKKGLSGSVCPDHFFASNIEEVVQWGKTNNLDLLITESAGLCNRCSPYLKDIKAVCVIDNLSGINTPKKIGPMLKLADIVVITKGDIVSQAEREVFASRVQTVNPKAAIIHINGLTGQGTYEFGSLIMDKNEEIDTVIERKLRFPLPSAVCSYCLGETRIGNNYQLGNIRKINFEEQ
MGSDKIHHHHHHMENRIVKFKSKESAGLNLHAIPGHFATSHSHINYYVDVTSIKTRVSEAKEAAKALYTKVPHHSYIDTIVCMDGTEMIGAFLSQEIERNGLMSVNKHETIYVVSPEINNGQMLFRDNNKGAIDGKHVVLLLATTTTGETIRRAMECINYYGGMVTCIASIFSTIDEVNGVKIDKLFDDDDVVNYQTYPVTECPFCKKGLPIEAMVNGFGYSKL
MFAFSKGPAGSSTYDRVAQKFQDGYEKMRAAIEMDELTKHAGSIQEKLRTAELYKEARSLLKEANEFNIMDIPETRRSEIRDKRQNMMKLEKSAQDRLIAICNEVDPNVKQSRSATVGPSRPASAARVTPRPTRATAPASLPMHQNPVNRAALLNGVDKVIGERLLDEVLDNTGVRMDDVAGCHSAKAALEEAVILPALNPNLFKGLRQPVKGILLFGPPGNGKTLLAKAVAGESKQMFFNISASSLTSKWVGDSEKTIRGLFQIARNAQPSIIFIDEIDSILCERSEKDAEVSRRMKTEFLVQFDGATSSADDRILVIGATNRPHELDDAVLRRFPKRIMLNLPDEEARKELITKTLKKHNMMDGLISSDIRYIASNTSGFSNSDLVALCKEAAMVPIREIDRSKLSMTDGEKIRKIRASDFDTALRTIRPSTSQKIMSKLSDFSRSFGC
MTRTVSMSTAINEAMKISMRRDENVILIGEDVAGGAQVDHLQDDEAWGGVLGVTKGLVQEFGRNRILDTPISEAGYMGAAMAAAATGLRPIAELMFNDFIGSCLDQVLNQGAKFRYMFGGKAKVPVTVRTMHGAGFSAAAQHSQSLYALFTSIPGIKVVVPSTPYDAKGLLLAAIEDDDPVIFFEDKTLYNMKGEVPEGYYTIPLGKADIKREGSDVTIVAIGKQVHTALAAAEQLAKKGLEVEVIDPRSLSPLDEDTILSSVEKTNRLIVIDEANPRCSIATDIAAIVADRGFDLLDAPIKRITAPHTPVPFSPPLEKLYLPTPEKVIETVSEMIGDQSLLHV

Soluble on expression in E. coli, soluble:
MRRKMERIALIEDDKDLAFLVKLNLEREGFEVEHFERATPFFKFISENSVDLILIDIMLPDLDGFRIANFLKSRADLKEIPVIFITAKGEEEDKLKGFELGADDYITKPFSMKELIARVRAVLKRYKKVSESKVLKYEGVELDTERQKLFVDGREVYLTPAEFKILKTLMENFGRPVSRSSLVEKLWDYERETTERAIDVHVKHIRDKLGKYKGLIKTVRGVGYKFEN
MALHLHRAERTDLLADGLGALLADPQPDPFAQELVLVAARGVERWLSQRLSLVLGCGPGRADGVCAGIAFRNPQSLIAEITGTLDDDPWSPEALAWPLLAVIDASLDEPWCRTLASHLGHFATTDAEAELRRGRRYSVARRLAGLFASYARQRPGLLAAWLDGDLGELPGDLAWQPPLWRALVTTVGADPPHVRHDKTIARLRDGPADLPARLSLFGHTRLACTDVQLLDALAVHHDLHLWLPHPSDELWRALAGFQGADGLLPRRQDTSRRAAQHPLLETLGRDVRELQRALPAARATDEFLGATTKPDTLLGWLQADIAGNAPRPAGRSLSDADRSVQVHACHGPARQIDVLREVLLGLLEDDPTLQPRDIVVMCPDIDTYAPLIVAGFGLGEVAGDCHPAHRLRVRLADRALTQTNPLLSVAAELLTIAETRATASQLLNLAQAAPVRAKFGFADDDLDTITTWVRESNIRWGFDPTHRRRYGLDTVVHNTWRFGLDRILTGVAMSEDSQAWLDTALPLDDVGSNRVELAGRLAEFVERLHHVVGGLSGARPLVAWLDALATGIDLLTACNDGWQRAQVQREFADVLARAGSRAAPLLRLPDVRALLDAQLAGRPTRANFRTGTLTVCTMVPMRSVPHRVVCLVGLDDGVFPRLSHPDGDDVLAREPMTGERDIRSEDRQLLLDAIGAATQTLVITYTGADERTGQPRPPAVPLAELLDALDQTTSAPVRERILVTHPLQPFDRKNVTPGALLGAKPFTFDPAALAAAQAAAGKRCPPTAFISGRLPAPPAADVTLADLLDFFKDPVKGFFRALDYTLPWDVDTVEDSIPVQVDALAEWTVGERMLRDMLRGLHPDDAAHSEWRRGTLPPGRLGVRRAKEIRNRARDLAAAALAHRDGHGQAHDVDVDLGDGRRLSGTVTPVFGGRTVSVTYSKLAPKHVLPAWIGLVTLAAQEPGREWSALCIGRSKTRNHIARRLFVPPPDPVAVLRELVLLYDAGRREPLPLPLKTSCAWAQARRDGQDPYPPARECWQTNRFRPGDDDAPAHVRAWGPRAPFEVLLGKPRAGEEVAGEETRLGALAARLWLPLLAAEGSV
MWWREKLFDGLRALELTKKTLKNKKERESMNQEELDKKLKKQEILVKDEKVWSYTYEDHISSIVKEAEKKGSFDHLPGKGKPLNLDKDLSYNPEKQLYRTLKNNHVLPRWIELSKEIDDLKEKLKENTNTAETADLIRTINKKVLEHNLLCPPSAQKTRVKTDFLEHHHHHH
GMSRSPFQTFVWRSEIFECQSTDIQRFYSLLAIETERLGLGSKILGQAGHHPLYLLQSPGQKAGLPNLLISAGFHGEESAGPWGLLHFLSQLDGELFKRVNLSVLPLVNPTGFAKGHRFNELGENPNRGFFIENGKAKPGADTSAEGRILLEHAHLLQVASRDGILTCHEDVLMTDTYVYTFEPSQAPGRFSHSLRDALGQYFPIAADGDVDNCPVRSGVIFNHFDTSFESFLVRSGARVGCCSETPGQQPLDQRILANAAAMNTFVNMLAPELS
MSRPAASLGLMRMIEAVPDRLDGSPRQLRRFWSDEFKETAVEQACQPGVNMSAVARQIGILPSQLYRWRRELLASDKPGEAPAAVDPQSVAPDANPVVEIVIDGIVVRADRHIEEAHLQRVIRAVRSALEHHHHHH
MGHHHHHHSHMKEDKEVQTGYMNAQIEIIPCKICGDKSSGIHYGVITCEGCKGFFRRSQQSNATYSCPRQKNCLIDRTSRNRCQHCRLQKCLAVGMSRDAVKFGRMSKKQRDSLYAEVQKHRMQQQQRDHQQQPG
MAHHHHHHMESGKNAHRLNRIFRKPKTMVAPRAWRPAADGEGERQQPFSGVSLQRINAMISELSEEERTRALAQQDPPTVVQEELAKRAARFGLTIERADAGNNEKTASSEITPEVQAVFQRRMERFGQSAAEEAMQKRVARFGNAATSAEGPGVELKLSEADREAMQRRQSRFGG
